Experimental data: PMC13170675, “A Wnt-induced conformational phospho-switch in DVL3 controls association with Frizzled receptors and Wnt/β-catenin signaling” (Science Advances, 2026)

B1: hDVL3 PDZ-IDR2-DEP (amino acids 243 to 496), nonphosphorylated (domain or fragment, human, UniProt Q92997 243-496, looked up)
chain: MSLNIITVTLNMEKYNFLGISIVGQSNERGDGGIYIGSIMKGGAVAADGRIEPGDMLLQVNEINFENMSNDDAVRVLREIVHKPGPITLTVAKCWDPSPRGCFTLPRSEPIRPIDPAAWVSHTAAMTGTFPAYGMSPSLSTITSTSSSITSSIPDTERLDDFHLSIHSDMAAIVKAMASPESGLEVRDRMWLKITIPNAFIGSDVVDWLYHNVEGFTDRREARKYASNLLKAGFIRHTVNKITFSEQCYYIFGD
notes: human Dishevelled 3 (DVL3), PDZ domain, IDR2 and DEP domain, amino acids 243 to 496; source: E. coli BL21 (DE3), purified (Ni-NTA, TEV cleavage, second Ni-NTA, anion exchange, SEC); not shown: His6, N-terminal, cleaved
B2: phosphorylated hDVL3 PDZ-IDR2-DEP (amino acids 243 to 496) (domain or fragment, human, UniProt Q92997 243-496, looked up)
chain: B1 chain
modifications: 8 to 19 phosphates present (native ESI-MS), on S/T residues of IDR2, by CK1ε
notes: human Dishevelled 3 (DVL3), PDZ domain, phosphorylated IDR2 and DEP domain, amino acids 243 to 496; also called PDZ-pIDR2-DEP; source: E. coli BL21 (DE3), purified; phosphorylated by CK1ε; not shown: His6, N-terminal, cleaved

Target: the molecule itself
Assay: native MS; native ESI-MS, 200 mM ammonium acetate buffer (pH 7.4); monomeric species are the main ones, homodimeric species detected

Row | Protein | binding result
1 | B1 | binds
2 | B2 | binds
